How the values were obtained:
HLA-A*23:01 = assay: IEDB peptide-MHC binding, purified MHC/competitive/fluorescence; filed as Kd, often an IC50 or EC50 that approximates it; ≥ and ≤ were set here for values at or beyond the usual limits of such assays
HLA-A*01:01 = assay: IEDB peptide-MHC binding, purified MHC/direct/fluorescence; filed as Kd, often an IC50 or EC50 that approximates it; ≥ and ≤ were set here for values at or beyond the usual limits of such assays; details: source organism: Influenza A virus (A/swine/Chiai/77-10/2001(H3N1))
HLA-A*02:01 [1] = assay: as above; details: source organism: Influenza A virus (A/swine/Chiai/77-10/2001(H3N1))
HLA-A*03:01 [2] = assay: as above; details: source organism: Influenza A virus (A/swine/Chiai/77-10/2001(H3N1))
HLA-A*26:01 [3] = assay: as above; details: source organism: Influenza A virus (A/turkey/NC/17026/1988(H1N1))
HLA-A*31:01 = assay: as above; details: source organism: Influenza A virus (A/swine/Chiai/77-10/2001(H3N1))
HLA-A*69:01 [4] = assay: as above; details: source organism: Influenza A virus (A/swine/Chiai/77-10/2001(H3N1))
HLA-B*07:02 [5] = assay: as above; details: source organism: Influenza A virus (A/swine/Chiai/77-10/2001(H3N1))
HLA-B*08:01 = assay: as above; details: source organism: Influenza A virus (A/turkey/NC/17026/1988(H1N1))
HLA-B*08:02 = assay: as above; details: source organism: Influenza A virus (A/turkey/NC/17026/1988(H1N1))
HLA-B*15:01 [6] = assay: as above; details: source organism: Influenza A virus (A/swine/Chiai/77-10/2001(H3N1))
HLA-B*15:09 = assay: as above; details: source organism: Influenza A virus (A/turkey/NC/17026/1988(H1N1))
HLA-B*15:17 [7] = assay: as above; details: source organism: Influenza A virus (A/swine/Chiai/77-10/2001(H3N1))
HLA-B*18:01 [8] = assay: as above; details: source organism: Influenza A virus (A/swine/Chiai/77-10/2001(H3N1))
HLA-B*27:05 = assay: as above; details: source organism: Influenza A virus (A/swine/Chiai/77-10/2001(H3N1))
HLA-B*39:01 [9] = assay: as above; details: source organism: Influenza A virus (A/turkey/NC/17026/1988(H1N1))
HLA-B*40:01 = assay: as above; details: source organism: Influenza A virus (A/swine/Chiai/77-10/2001(H3N1))
HLA-B*46:01 [10] = assay: as above; details: source organism: Influenza A virus (A/swine/Chiai/77-10/2001(H3N1))
HLA-B*48:01 = assay: as above; details: source organism: Influenza A virus (A/swine/Chiai/77-10/2001(H3N1))
HLA-B*57:01 [11] = assay: as above; details: source organism: Influenza A virus (A/swine/Chiai/77-10/2001(H3N1))
HLA-B*58:01 = assay: as above; details: source organism: Influenza A virus (A/swine/Chiai/77-10/2001(H3N1))
HLA-A*11:01 = assay: IEDB peptide-MHC binding, purified MHC/competitive/fluorescence; filed as Kd, often an IC50 or EC50 that approximates it; ≥ and ≤ were set here for values at or beyond the usual limits of such assays; details: source organism: Influenza A virus
HLA-A*80:01 = assay: as above; details: source organism: Influenza A virus
HLA-A*02:01 [12] = assay: as above; details: source organism: Mycobacterium tuberculosis C
HLA-A*02:03 = assay: as above; details: source organism: Mycobacterium tuberculosis C
HLA-A*02:11 = assay: as above; details: source organism: Mycobacterium tuberculosis C
HLA-A*02:12 = assay: as above; details: source organism: Mycobacterium tuberculosis C
HLA-A*02:16 = assay: as above; details: source organism: Mycobacterium tuberculosis C
HLA-A*02:19 = assay: as above; details: source organism: Mycobacterium tuberculosis C
HLA-A*03:01 [13] = assay: as above; details: source organism: Mycobacterium tuberculosis C
HLA-A*24:03 = assay: as above; details: source organism: Mycobacterium tuberculosis C
HLA-A*26:01 [14] = assay: as above; details: source organism: Mycobacterium tuberculosis C
HLA-A*29:02 = assay: as above; details: source organism: Mycobacterium tuberculosis C
HLA-A*68:02 = assay: as above; details: source organism: Mycobacterium tuberculosis C
HLA-A*69:01 [15] = assay: as above; details: source organism: Mycobacterium tuberculosis C
HLA-B*15:01 [16] = assay: as above; details: source organism: Mycobacterium tuberculosis C
HLA-B*15:17 [17] = assay: as above; details: source organism: Mycobacterium tuberculosis C
HLA-B*18:01 [18] = assay: as above; details: source organism: Mycobacterium tuberculosis C
HLA-B*27:03 = assay: as above; details: source organism: Mycobacterium tuberculosis C
HLA-B*39:01 [19] = assay: as above; details: source organism: Mycobacterium tuberculosis C
HLA-B*46:01 [20] = assay: as above; details: source organism: Mycobacterium tuberculosis C
HLA-B*51:01 = assay: as above; details: source organism: Mycobacterium tuberculosis C
HLA-B*57:01 [21] = assay: as above; details: source organism: Mycobacterium tuberculosis C
HLA-B*07:02 [22] = assay: IEDB peptide-MHC binding, purified MHC/competitive/fluorescence; ≥ and ≤ were set here for values at or beyond the usual limits of such assays; details: source organism: Callithrix jacchus
HLA-B*53:01 = assay: as above; details: source organism: Callithrix jacchus

SYHNVDQLK
≥ 20 µM: Kd (HLA-A*23:01; source organism: Vibrio parahaemolyticus K5030)

VSFDQNLDY
0.0184 µM: Kd (HLA-A*80:01)
0.117 µM: Kd (HLA-A*01:01)
0.0016 µM: Kd (HLA-B*15:17 [7])
3.44 µM: Kd (HLA-B*58:01)
6.5 µM: Kd (HLA-A*03:01 [2])
0.019 µM: Kd (HLA-B*15:01 [6])
≥ 20 µM: Kd (HLA-A*02:01 [1]) | Kd (HLA-A*26:01 [3]) | Kd (HLA-A*31:01) | Kd (HLA-A*69:01 [4]) | Kd (HLA-B*07:02 [5]) | Kd (HLA-B*08:01) | Kd (HLA-B*08:02) | Kd (HLA-B*15:09) | Kd (HLA-B*18:01 [8]) | Kd (HLA-B*27:05) | Kd (HLA-B*39:01 [9]) | Kd (HLA-B*40:01) | Kd (HLA-B*46:01 [10]) | Kd (HLA-B*48:01) | Kd (HLA-B*57:01 [11])
0.0987 µM: Kd (HLA-A*11:01)

SLVAIHLAC
0.443 µM: Kd (HLA-A*02:11)
≥ 20 µM: Kd (HLA-A*02:01 [12]) | Kd (HLA-A*02:03) | Kd (HLA-A*02:12) | Kd (HLA-A*02:16) | Kd (HLA-A*02:19) | Kd (HLA-A*03:01 [13]) | Kd (HLA-A*23:01; source organism: Mycobacterium tuberculosis C) | Kd (HLA-A*24:03) | Kd (HLA-A*26:01 [14]) | Kd (HLA-A*29:02) | Kd (HLA-A*68:02) | Kd (HLA-A*69:01 [15]) | Kd (HLA-B*15:01 [16]) | Kd (HLA-B*15:17 [17]) | Kd (HLA-B*18:01 [18]) | Kd (HLA-B*27:03) | Kd (HLA-B*39:01 [19]) | Kd (HLA-B*46:01 [20]) | Kd (HLA-B*51:01) | Kd (HLA-B*57:01 [21])

VPIAWAAA
0.144 µM: IC50 (HLA-B*07:02 [22])
≥ 20 µM: IC50 (HLA-B*53:01)

— the Immune Epitope Database (IEDB)
